In US20080227698A1, “OLIGOPEPTIDES FOR TREATMENT OF OSTEOPOROSIS AND OTHER BONE DISEASES AND METHODS THEREOF” (Washington University, priority 2005, published 2008):

Assays:
[1] = target: LRP5 (Homo sapiens, UniProt O75197); test: ^125I-Mesd binding to HEK293 cells transiently transfected with LRP5; conditions: ^125I-Mesd 5 nM, 4 hours at 4° C., HEK293 cells transfected with Myc-tagged LRP5
Procedure: (§1) Cells (2×10^5) were seeded into 12-well dishes 1 day prior to assay. Ligand-binding buffer (minimal Eagle's medium containing 0.6% BSA with a different concentration of radioligand, 0.6 ml/well) was added to cell monolayers, in the absence or the presence of 500 nM unlabeled RAP or 500 nM unlabeled Mesd, followed with incubation for 0-4 hours at 4° C. Thereafter, overlying buffer containing unbound ligand was removed, and cell monolayers were washed and lysed in low-SDS lysis buffer (62.5 mM Tris-HCl pH 6.8, 0.2% SDS, 10% v/glycerol) and counted.
To determine whether Mesd binds to other members of the LDLR family, ^125I-Mesd binding analysis was performed with four groups of cells expressing different members of the LDLR family (FIG. 2). In the first experiment, HEK293 cells were transiently transfected with cDNAs for the LDLR, LRP5, LRP6 or empty pcDNA3 vector. […]

[2] = target: LRP6 (Homo sapiens, UniProt O75581); test: ^125I-Mesd cell surface ligand binding to LRP6-transduced HT1080 cells; design: plasmid pCS-Myc-hLRP6 containing the full-length human LRP6 cDNA; HA; expressed in transfected cells; host or cells: human HT1080 cells, stably transduced (pLNCX2 retroviral vector)
Chain of LRP6 (O75581 20-1613): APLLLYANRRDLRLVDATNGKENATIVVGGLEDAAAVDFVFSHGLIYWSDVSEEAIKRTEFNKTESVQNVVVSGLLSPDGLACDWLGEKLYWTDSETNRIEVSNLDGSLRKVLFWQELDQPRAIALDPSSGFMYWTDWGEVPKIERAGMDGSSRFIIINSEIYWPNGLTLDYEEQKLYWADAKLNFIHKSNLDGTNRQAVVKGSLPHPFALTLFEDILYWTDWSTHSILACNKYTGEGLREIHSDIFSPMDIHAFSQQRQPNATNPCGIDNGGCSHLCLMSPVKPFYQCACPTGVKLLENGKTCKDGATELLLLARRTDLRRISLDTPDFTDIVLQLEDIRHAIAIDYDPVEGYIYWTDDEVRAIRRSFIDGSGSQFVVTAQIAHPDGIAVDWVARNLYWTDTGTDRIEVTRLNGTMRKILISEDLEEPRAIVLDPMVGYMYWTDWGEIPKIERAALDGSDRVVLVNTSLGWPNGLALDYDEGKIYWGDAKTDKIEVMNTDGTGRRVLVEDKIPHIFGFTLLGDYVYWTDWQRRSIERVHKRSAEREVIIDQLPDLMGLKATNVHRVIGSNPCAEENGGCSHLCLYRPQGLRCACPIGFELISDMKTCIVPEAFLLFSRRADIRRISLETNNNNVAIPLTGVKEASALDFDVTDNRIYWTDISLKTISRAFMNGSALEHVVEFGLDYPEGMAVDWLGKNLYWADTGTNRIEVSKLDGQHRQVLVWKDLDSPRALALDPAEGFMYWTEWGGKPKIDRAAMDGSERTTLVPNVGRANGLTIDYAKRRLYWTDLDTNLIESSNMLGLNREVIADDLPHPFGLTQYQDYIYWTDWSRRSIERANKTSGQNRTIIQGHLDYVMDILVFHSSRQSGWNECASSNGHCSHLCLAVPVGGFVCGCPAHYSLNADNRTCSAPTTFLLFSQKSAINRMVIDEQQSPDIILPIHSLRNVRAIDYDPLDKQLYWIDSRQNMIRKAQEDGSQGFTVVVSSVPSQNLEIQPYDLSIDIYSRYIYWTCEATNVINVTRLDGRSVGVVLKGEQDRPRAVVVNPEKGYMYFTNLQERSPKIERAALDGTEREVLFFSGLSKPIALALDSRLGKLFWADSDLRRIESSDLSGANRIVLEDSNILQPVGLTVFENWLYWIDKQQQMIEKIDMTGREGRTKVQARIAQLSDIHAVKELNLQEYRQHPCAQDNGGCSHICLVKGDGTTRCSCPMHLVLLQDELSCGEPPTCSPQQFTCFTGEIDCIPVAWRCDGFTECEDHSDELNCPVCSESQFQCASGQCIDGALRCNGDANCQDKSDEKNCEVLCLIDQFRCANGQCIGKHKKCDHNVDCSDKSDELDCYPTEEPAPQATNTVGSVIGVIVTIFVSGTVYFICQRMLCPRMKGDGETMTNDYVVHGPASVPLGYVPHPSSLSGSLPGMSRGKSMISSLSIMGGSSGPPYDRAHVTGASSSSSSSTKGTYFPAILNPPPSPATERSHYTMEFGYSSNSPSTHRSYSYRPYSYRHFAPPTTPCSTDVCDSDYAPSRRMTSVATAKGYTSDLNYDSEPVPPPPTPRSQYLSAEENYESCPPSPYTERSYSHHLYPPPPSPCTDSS
Procedure: To examine whether Mesd binds with high affinity to […] at the cell surface, cell surface ligand binding experiments were performed with cells stably transduced with LRP6 cDNA. Human HT1080 cells, which express undetectable levels of LRP6, were transduced with a viral vector alone (pLNCX2) or with vector containing LRP6 cDNA (Li, Y., Oncogene 23: 9129-9135, 2004) and used for ^125I-Mesd binding (FIG. 1A). ^125I-Mesd (5 nM) reached maximal binding after 2 hours incubation at 4° C. with LRP6-expressing HT1080 cells (FIG. 1A).
(A) Time course of ^125I-Mesd (5 nM) binding to LRP6-transduced HT1080 cells and the control cells. Assay was carried out for the indicated periods at 4° C. in the absence (total) or presence of 500 nM Mesd (non-specific). (B) Saturation binding of ^125I-Mesd to LRP6-transduced HT1080 cells and the control cells. Assay was carried out at indicated concentrations for 3 hours at 4° C. in the absence (total) or presence (non-specific) of 500 nM Mesd. (C) Scatchard plots of data in B. All values are the average of triple determinations with the s.d. indicated by error bars.
as §1

Chain of LRP5 (O75197 32-1615): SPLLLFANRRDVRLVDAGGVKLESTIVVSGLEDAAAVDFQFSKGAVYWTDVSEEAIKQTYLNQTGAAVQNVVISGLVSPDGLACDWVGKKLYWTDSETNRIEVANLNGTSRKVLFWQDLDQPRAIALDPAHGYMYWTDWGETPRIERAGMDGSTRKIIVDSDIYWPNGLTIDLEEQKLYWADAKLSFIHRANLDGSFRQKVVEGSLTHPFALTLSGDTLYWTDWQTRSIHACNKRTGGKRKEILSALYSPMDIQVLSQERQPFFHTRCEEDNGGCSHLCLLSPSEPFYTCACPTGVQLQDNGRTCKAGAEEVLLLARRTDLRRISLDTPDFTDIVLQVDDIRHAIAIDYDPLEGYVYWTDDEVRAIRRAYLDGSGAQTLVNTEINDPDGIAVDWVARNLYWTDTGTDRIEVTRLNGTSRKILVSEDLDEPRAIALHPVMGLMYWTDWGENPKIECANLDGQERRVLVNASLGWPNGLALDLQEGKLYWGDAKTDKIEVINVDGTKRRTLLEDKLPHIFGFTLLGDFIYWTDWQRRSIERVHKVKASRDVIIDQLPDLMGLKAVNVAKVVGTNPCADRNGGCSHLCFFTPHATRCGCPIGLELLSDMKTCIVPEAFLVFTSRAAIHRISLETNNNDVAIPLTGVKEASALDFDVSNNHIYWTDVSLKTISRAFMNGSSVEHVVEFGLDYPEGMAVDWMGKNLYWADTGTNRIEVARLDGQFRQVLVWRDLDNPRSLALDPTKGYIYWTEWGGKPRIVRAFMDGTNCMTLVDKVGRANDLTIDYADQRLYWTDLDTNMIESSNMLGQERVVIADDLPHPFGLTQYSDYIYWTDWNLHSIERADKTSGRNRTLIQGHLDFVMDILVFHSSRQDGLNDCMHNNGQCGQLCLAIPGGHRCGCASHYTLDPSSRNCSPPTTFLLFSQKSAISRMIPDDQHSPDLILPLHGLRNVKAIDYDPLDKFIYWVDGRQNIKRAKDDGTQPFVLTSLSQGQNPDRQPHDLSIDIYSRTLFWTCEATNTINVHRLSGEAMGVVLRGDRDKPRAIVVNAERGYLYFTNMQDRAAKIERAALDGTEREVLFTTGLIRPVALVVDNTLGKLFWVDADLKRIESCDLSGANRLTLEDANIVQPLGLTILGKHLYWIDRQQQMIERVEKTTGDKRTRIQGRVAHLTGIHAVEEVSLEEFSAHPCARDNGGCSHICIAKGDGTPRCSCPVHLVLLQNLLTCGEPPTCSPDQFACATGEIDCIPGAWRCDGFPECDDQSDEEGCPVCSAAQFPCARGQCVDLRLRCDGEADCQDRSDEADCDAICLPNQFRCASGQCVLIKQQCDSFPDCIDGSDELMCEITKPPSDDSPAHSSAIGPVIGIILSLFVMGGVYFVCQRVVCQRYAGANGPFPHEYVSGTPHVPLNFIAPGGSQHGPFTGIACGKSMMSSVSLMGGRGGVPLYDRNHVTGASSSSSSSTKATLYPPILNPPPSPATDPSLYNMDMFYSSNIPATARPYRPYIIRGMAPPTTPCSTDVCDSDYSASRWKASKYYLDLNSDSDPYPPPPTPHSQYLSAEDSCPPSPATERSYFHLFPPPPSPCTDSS

B1: Mesd: recombinant wild-type mouse Mesd, polyhistidine tail at the N-terminus, lacks the signal peptide, expressed in E. coli (protein)
chain: ADTPGEATPPPRKKKDIRDYNDADMARLLEQWEKDDDIEEGDLPEHKRPSAPIDFSKLDPGKPESILKMTKKGKTLMMFVTVSGNPTEKETEEITSLWQGSLFNANYDVQRFIVGSDRAIFMLRDGSYAWEIKDFLVSQDRCAEVTLEGQMYPGKGGGSKEKNKTKPEKAKKKEGDRKPRASKEDNRAGSRREDL
modifications: left off: small tags and cut ends
notes: recombinant wild-type mouse Mesd, polyhistidine tail at the N-terminus, lacks the signal peptide, expressed in E. coli
[1]
  Specific ^125I-Mesd binding to LRP5: specifically binds to Mesd, albeit at lower levels compared to LRP6
[2]; 500 nM unlabeled competitor, ^125I-Mesd 5 nM, 2 hours at 4° C.
  Inhibition of ^125I-Mesd binding to cell surface LRP6: > 90%
[2]; LRP6-transduced HT1080 cells, 3 hours at 4° C.
  Concentration at which Mesd specific binding saturates: > 6.4 nM
[2]; ^125I-Mesd 5 nM, 4 hours at 4° C., LRP6-transduced HT1080 cells
  ^125I-Mesd binding level: 1320 fmoles/mg cell protein
[2]; unlabeled Mesd 500 nM, ^125I-Mesd 5 nM, 4° C.
  Effect of excess unlabeled Mesd on ^125I-Mesd binding: completely eliminated this binding
